Data as given in article doi:10.1101/2021.02.16.431021 (bioRxiv, 2021).

Target: the molecule itself
Assay: crystal structure

B1: SARS-CoV main protease (M^pro) (enzyme)
chain: SGFRKMAFPSGKVEGCMVQVTCGTTTLNGLWLDDTVYCPRHVICTAEDMLNPNYEDLLIRKSNHSFLVQAGNVQLRVIGHSMQNCLLRLKVDTSNPKTPKYKFVRIQPGQTFSVLACYNGSPSGVYQCAMRPNHTIKGSFLNGSCGSVGFNIDYDCVSFCYMHHMELPTGVHAGTDLEGKFYGPFVDRQTAQAAGTDTTITLNVLAWLYAAVINGDRWFLNRFTTTLNDFNLVAMKYNYEPLTQDHVDILGPLSAQTGIAVLDMCAALKELLQNGMNGRTILGSTILEDEFTPFDVVRQCSGVTFQ
B1: binds.
